Results: US20230051872A1, “Multivalent D-Peptidic Compounds for Target Proteins” (Reflexion Pharmaceuticals, Inc., priority 2019, published 2023)
Each block holds one molecule with its values, some of them ahead of it.

Experiments:
[1] = Subcutaneous immunization, ELISA for antigen-specific serum IgG (anti-drug antibodies); type: in vivo, BALB/c mice; settings: repeated subcutaneous immunization with adjuvant, Days 0, 21, 35; serum to Day 42
Protocol: Adjuvant was purchased from TiterMax. […] All the procedures related to animal handling, care and treatment in the study were performed according to the guidelines set forth in an ACUP protocol for polyclonal antisera production in mice, approved by the Institutional Animal Care and Use Committee (IACUC) of Josman LLC.

[2] = molecular target: PD-1/PD-L1 complex (Homo sapiens, UniProt Q9NZQ7); settings: in vitro, reference 31; read-out: IC50, dissociation of PD-1/PD-L1 complex; cited from earlier work
[3] = molecular target: Human PD-1-Fc (R&D Systems cat #1086-PD-050), biotinylated (human) (UniProt Q15116); test: SPR (Table 2)
[4] = molecular target: Human PD-1-Fc (R&D Systems cat #1086-PD-050), biotinylated (human) (UniProt Q15116); test: SPR, D-peptidic compound on natural L-PD-1 (Example 1)

Sequence of Human PD-1-Fc (R&D Systems cat #1086-PD-050), biotinylated (human) (Q15116 25-167 limits assumed): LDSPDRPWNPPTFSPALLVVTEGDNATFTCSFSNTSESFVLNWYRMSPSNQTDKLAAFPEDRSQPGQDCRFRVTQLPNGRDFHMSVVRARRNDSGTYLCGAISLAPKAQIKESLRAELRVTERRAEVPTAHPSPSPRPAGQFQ
Sequence of PD-1/PD-L1 complex (Q9NZQ7 19-238 limits assumed, one chain of several): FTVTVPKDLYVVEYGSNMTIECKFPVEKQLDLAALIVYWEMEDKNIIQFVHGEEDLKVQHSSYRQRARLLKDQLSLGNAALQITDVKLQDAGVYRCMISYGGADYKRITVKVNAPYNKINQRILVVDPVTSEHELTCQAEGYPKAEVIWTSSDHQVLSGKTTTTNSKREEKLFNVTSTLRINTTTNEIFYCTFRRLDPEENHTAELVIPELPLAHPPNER

Molecule: nivolumab
anti-drug antibody response (antigen-specific serum IgG) [1]: strong serum IgG titers

Molecule: C[C@@H](O)[C@H](NC(=O)N[C@@H](CC(N)=O)c1nc([C@H](N)CO)no1)C(=O)O [CA-170]
IC50 [2]: 5 to 10 mM

Kd [3]: 1510 nM | Kd [4]: 625 nM
B1: RFX-977296 (designed binder)
chain: TIDQWLLKNAKEDAIAELKKAGITSDLYFNWINVAGSVSSVNFHKNYILKAHA
modifications: D-protein

Kd [3]: 114 nM
B2: 977978 (designed binder)
chain: TIDQWLLKNAKEDAIAELKKAGITCDLYFNWINVAGSVSSVNFHKNYILKAHA
modifications: not fully specified; D-protein
